Series [1] deals with L1 repressor CI (native, untagged) (Mycobacteriophage L1). In words: EMSA. Conditions: EMSA in Buffer A (binding buffer composition not given in material) with 10 ug/ml BSA, ~0.1 nM 32P-labeled operator, 20 ul, 25 C for 20 min (also 32, 37, 42 C …); for Kd: 25 C, apparent Kd at 50% saturation.
The target in series [2] is N-terminal histidine-tagged repressor (CI) of temperate mycobacteriophage L1 (mycobacteriophage L1). In words: cross-linking; 0.1% glutaraldehyde for 2 min after 20 min at 25°C in Buffer A, ~0.5 uM protein, SDS-10% PAGE, silver staining; monomer to dimer.
For series [3] the target is unchanged. Description: SEC; analytical HPLC gel filtration (Protein Pak, Waters) in Buffer A minus PMSF; ~20 uM protein loaded; column calibrated with BSA, ovalbumin, carbonic anhydrase, lysozyme; monomer to dimer. On the technique in general: In gel filtration, larger molecules generally elute earlier.
Series [4] addresses C-terminal domain (CTD) of L1 repressor CI (mycobacteriophage L1). In words: cross-linking; 0.1% glutaraldehyde for 2 min after 20 min at 25°C in Buffer A, ~0.5 uM protein, SDS-10% PAGE, silver staining; monomer to dimer.
Series [5] has the same target. Description: SEC; analytical HPLC gel filtration (Protein Pak, Waters) in Buffer A minus PMSF; ~20 uM protein loaded; column calibrated with BSA, ovalbumin, carbonic anhydrase, lysozyme; monomer to dimer.
Series [6] relates to L1 repressor CI (native, untagged) (Mycobacteriophage L1). Description: equilibrium binding. Particulars: data not shown; EMSA in Buffer A (binding buffer composition not given in material) with 10 ug/ml BSA, ~0.1 nM 32P-labeled operator, 20 ul, 25 C for 20 min (also 32, 37, 42 C …). A general note: In EMSA bound probe runs differently from free probe, usually more slowly.

As a reminder, the stoichiometry N is the number of molecules, sites or subunits per partner or assembly.

Sequence of N-terminal histidine-tagged repressor (CI) of temperate mycobacteriophage L1 (Q05286 whole entry): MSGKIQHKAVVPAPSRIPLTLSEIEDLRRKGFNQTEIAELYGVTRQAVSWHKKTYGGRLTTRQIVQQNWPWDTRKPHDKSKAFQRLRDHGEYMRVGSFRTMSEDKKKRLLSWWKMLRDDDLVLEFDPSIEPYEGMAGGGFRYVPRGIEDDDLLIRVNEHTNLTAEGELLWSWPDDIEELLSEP

Turning to OL (97 bp), the Kd in series [1] is 370 nM.
For “N-terminal histidine-tagged repressor (CI) of temperate mycobacteriophage L1”, the stoichiometry N in series [2] and in series [3] was 2 in each case.
For the substance “C-terminal domain (CTD) of L1 repressor CI (domain or fragment)”, the stoichiometry N in series [4] and in series [5] was 2 throughout.
Consider O64 (~120 bp), for which, in series [1], the Kd amounted to 140 nM and the binding signal (fold decrease of affinity vs 25 C) was 6.
In series [6], 21 bp DNA carrying O64 operator returned a binding signal (fold higher affinity than N4) of 2.57.
Substance 21 bp DNA carrying OL operator showed a binding signal (affinity relative to N3 (1/2.57)) in series [6] of 0.389.
